Experimental data taken from article PMC117134.

Molecular target: HIV-1 reverse transcriptase p66 subunit, wild type (HIV-1)
Assay: glycerol gradient ultracentrifugation

Which stoichiometry N does the source give for “HIV-1 reverse transcriptase p66 subunit, wild type (enzyme)” here?
The stoichiometry N was 2.
